B1: ZNF649 (parent)
chain: YQAGKPDALTKLEQGEPLWTLEDE
B2: LARP4 (parent)
chain: WTVANMEEIKKLTTDPDLILEVLR

Variants of: B1
Assay: protein stability index of a GFP-peptide fusion (GPS, HEK-293T) (PSI 1-6); higher = more stable
Details: c terminus: a fixed tail appended
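Further: lentivirally expressed fusions sorted by FACS into six bins by GFP to DsRed ratio, PSI derived from sequencing read proportions per bin multiplied by bin number.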

Row | Variant | protein stability index
1 | K11C | 4.45
2 | K11W | 2.86
3 | K11M | 4.77
4 | K11D | 4.86
5 | K11G | 4.21
6 | K11N | 4.51
7 | K11L | 4.23
8 | K11Q | 4.76
9 | K11P | 5.28
10 | K11F | 3.37
11 | K11T | 4.09
12 | K11Y | 3.51
13 | K11S | 4.19
14 | K11I | 4.54
15 | W19R | 4.69
16 | W19N | 5.2
17 | W19Y | 5.24
18 | W19K | 4.98
19 | W19P | 5.62
20 | W19H | 5.72
21 | W19M | 4.87
22 | W19L | 4.92
23 | W19F | 4.86
24 | W19A | 5.52
25 | W19I | 5.21

Row | Variant | protein stability index
26 | W19S | 5.57
27 | W19D | 5.31
28 | L9A | 4.95
29 | L9I | 4.69
30 | L9K | 4.86
31 | L9V | 4.62
32 | L9D | 5.48
33 | L9F | 4.01
34 | L9W | 1.86
35 | L9S | 4.9
36 | L9E | 4.93
37 | L9M | 3.61
38 | L9Q | 4.67
39 | L9N | 3.99
40 | P6W | 2.99
41 | P6N | 4.15
42 | P6E | 5.46
43 | P6M | 3.85
44 | P6Q | 4.15
45 | P6L | 3.79
46 | P6V | 4.42
47 | P6F | 3.31
48 | P6C | 4.17
49 | P6Y | 3.91
50 | P6S | 4.19

Row | Variant | protein stability index
51 | P6G | 4.99
52 | A8G | 4.87
53 | A8D | 4.94
54 | A8E | 5.31
55 | A8T | 3.95
56 | A8P | 4.27
57 | A8V | 3.51
58 | A8K | 4.85
59 | A8H | 4.04
60 | A8S | 4.46
61 | A8W | 1.18
62 | L21N | 4.39
63 | L21F | 4.42
64 | L21V | 2.31
65 | L21K | 4.79
66 | L21E | 5.3
67 | L21M | 3.88
68 | L21T | 4.37
69 | L21Y | 4.95
70 | L21A | 4.47
71 | L21R | 4.55
72 | L21I | 4.06
73 | L21D | 4.89
74 | L12K | 4.17
75 | L12M | 4.54

Row | Variant | protein stability index
76 | L12V | 4.32
77 | L12W | 3.75
78 | L12G | 4.83
79 | L12A | 4.95
80 | L12F | 4.37
81 | L12Y | 4.68
82 | L12Q | 4.56
83 | E16P | 3.93
84 | E16W | 2.49
85 | E16S | 4.38
86 | E16G | 4.06
87 | E16I | 2.1
88 | E16H | 3.32
89 | E16L | 3.66
90 | E16N | 3.73
91 | E16T | 3.97
92 | E16V | 2.59
93 | E16K | 4.49
94 | E16Q | 3.76
95 | E16D | 4.94
96 | E16A | 3.93
97 | E16Y | 2.62
98 | P17A | 4.86
99 | P17C | 3.46
100 | P17E | 4.21

Row | Variant | protein stability index
101 | P17F | 3.68
102 | P17M | 4.1
103 | P17R | 3.94
104 | P17L | 3.95
105 | P17Q | 4.47
106 | P17G | 3.47
107 | P17N | 4.41
108 | P17Y | 3.23
109 | P17K | 3.97
110 | E22M | 2.92
111 | E22C | 3.45
112 | E22G | 3.88
113 | E22D | 4.6
114 | E22F | 2.05
115 | E22K | 3.46
116 | E22I | 3.75
117 | E22N | 3.95
118 | E22Y | 2.62
119 | E22P | 4.39
120 | E22S | 2.75
121 | E22A | 4.8
122 | D23P | 3.78
123 | D23L | 2.97
124 | D23Q | 3.86
125 | D23V | 3.81

Row | Variant | protein stability index
126 | D23K | 3.51
127 | D23I | 1.84
128 | D23W | 2.13
129 | D23Y | 2.14
130 | D23G | 3.61
131 | D23M | 2.99
132 | D23C | 2.98
133 | D23T | 3.32
134 | D23F | 3.38
135 | D23N | 3.25
136 | A3C | 3.83
137 | A3L | 4.26
138 | A3W | 2.2
139 | A3P | 4.36
140 | A3M | 4.1
141 | A3T | 4.54
142 | A3I | 4.51
143 | A3N | 4.71
144 | A3V | 4.42
145 | A3Q | 4.75
146 | A3Y | 4.25
147 | A3K | 4.75
148 | D7Q | 3.58
149 | D7K | 3.66
150 | D7S | 3.99

Row | Variant | protein stability index
151 | D7A | 3.4
152 | D7N | 3.26
153 | D7V | 3.28
154 | D7C | 2.37
155 | D7H | 4.18
156 | D7P | 4.16
157 | D7E | 4.77
158 | E24H | 4.04
159 | E24K | 4.41
160 | E24D | 4.71
161 | E24G | 3.87
162 | E24M | 3.88
163 | E24N | 4.27
164 | E24C | 3.49
165 | E24Q | 4.02
166 | E24A | 3.74
167 | E24R | 4.48
168 | E24P | 4.32
169 | E24V | 3.42
170 | E24W | 2.38
171 | E24S | 4.27
172 | E24Y | 3.29
173 | E24L | 3.53
174 | T20M | 5.05
175 | T20H | 4.57

Row | Variant | protein stability index
176 | T20F | 4.22
177 | T20P | 4.58
178 | T20Y | 4.7
179 | T20I | 3.96
180 | T20V | 4.41
181 | T20C | 2.62
182 | T20Q | 4.82
183 | T20N | 4.42
184 | T20E | 5.14
185 | T20S | 3.73
186 | T20D | 5.06
187 | T20W | 2.67
188 | T20G | 4.24
189 | G4F | 4.8
190 | G4K | 4.18
191 | G4L | 4.17
192 | G4R | 3.53
193 | G4P | 4.63
194 | G4D | 5.05
195 | G4I | 4.22
196 | G4E | 4.38
197 | G4S | 4.4
198 | G4N | 4.92
199 | G15V | 4.62
200 | G15K | 4.4

Row | Variant | protein stability index
201 | G15L | 4.25
202 | G15D | 4.6
203 | G15Q | 4.31
204 | G15A | 3.84
205 | G15F | 3.74
206 | G15I | 4.15
207 | G15T | 4.15
208 | G15S | 4.21
209 | G15R | 2.82
210 | G15H | 4.31
211 | G15C | 3.9
212 | G15N | 4.11
213 | G15M | 3.97
214 | G15Y | 3.52
215 | K5R | 3.31
216 | K5M | 4.38
217 | K5L | 4.05
218 | K5S | 4.48
219 | K5I | 4.02
220 | K5E | 4.59
221 | K5F | 2.76
222 | K5P | 5
223 | K5D | 4.01
224 | K5Y | 2.6
225 | K5N | 4.84

Row | Variant | protein stability index
226 | Y1W | 4.7
227 | Y1G | 4.71
228 | Y1P | 4.5
229 | Y1C | 5.06
230 | Y1H | 5.25
231 | Y1R | 5.16
232 | Y1M | 4.75
233 | Y1T | 5.57
234 | Y1K | 5.51
235 | Y1F | 3.39
236 | Q14M | 4.17
237 | Q14G | 4.92
238 | Q14C | 4.66
239 | Q14L | 4.07
240 | Q14K | 4.28
241 | Q14D | 4.67
242 | Q14N | 4.07
243 | Q14T | 4.71
244 | Q14Y | 3.53
245 | Q14I | 4.44
246 | Q14H | 4.14
247 | Q14F | 3.89
248 | Q14W | 4.44
249 | E13H | 4.25
250 | E13I | 3.15

Row | Variant | protein stability index
251 | E13W | 1.98
252 | E13T | 3.86
253 | E13K | 3.34
254 | E13Y | 3.12
255 | E13G | 3.31
256 | E13L | 3.14
257 | E13Q | 2.87
258 | E13N | 4.16
259 | E13A | 4.2
260 | E13D | 4.18
261 | E13S | 4
262 | E13V | 4.21
263 | E13R | 3.26
264 | E13P | 4.18
265 | T10R | 3.97
266 | T10Y | 4.58
267 | T10V | 4.62
268 | T10Q | 4.55
269 | T10M | 4.22
270 | T10N | 4.41
271 | T10C | 4.28
272 | T10K | 3.15
273 | T10L | 4.39
274 | T10A | 4.88
275 | Q2T | 5.05

Row | Variant | protein stability index
276 | Q2M | 4.63
277 | Q2Y | 3.56
278 | Q2E | 5.66
279 | Q2G | 4.38
280 | Q2F | 4.6
281 | Q2D | 5.48
282 | Q2K | 4.58
283 | Q2A | 3.68
284 | Q2S | 4.99
285 | Q2P | 4.8
286 | Q2I | 3.29
287 | L18D | 5.11
288 | L18T | 5.06
289 | L18C | 4.91
290 | L18M | 3.84
291 | L18F | 3.54
292 | L18G | 4.83
293 | L18I | 3.53
294 | L18R | 4.96
295 | L18S | 5.32
296 | L18K | 5.03
297 | L18P | 5.35
298 | L18H | 5.06
299 | L18A | 4.5

Variants of: B2
Assay: as above
Details: c terminus: a fixed tail appended

Row | Variant | protein stability index
300 | R24Y | 1.57
301 | R24C | 2.3
302 | R24E | 2.53
303 | R24L | 1.12
304 | R24T | 2.5
305 | R24N | 2.48
306 | R24G | 2.65
307 | R24Q | 2.38
308 | R24H | 1.75
309 | R24K | 1.82
310 | R24A | 2.12
311 | R24P | 2.37
312 | R24V | 1.83
313 | R24I | 2.14
314 | R24S | 2.27
315 | R24F | 1.74
316 | R24W | 2.31
317 | R24D | 2

Row | Variant | protein stability index
318 | R24M | 1.47
319 | L23F | 2.46
320 | L23N | 3.56
321 | L23T | 3.08
322 | L23I | 2.65
323 | L23R | 2.47
324 | L23W | 2.96
325 | L23Y | 3.06
326 | L23H | 2.61
327 | L23V | 2.85
328 | L23P | 2.89
329 | L23D | 4.03
330 | L23E | 2.96
331 | L23S | 3.27
332 | L23M | 2.12
333 | L23Q | 2.63
334 | L23K | 3.28
